According to PMC2883168:

Biological target: human FGFR1-IIIb (human)
Assay: SPR

human FGFR1-IIIb (human), sequence (P11362 22-822): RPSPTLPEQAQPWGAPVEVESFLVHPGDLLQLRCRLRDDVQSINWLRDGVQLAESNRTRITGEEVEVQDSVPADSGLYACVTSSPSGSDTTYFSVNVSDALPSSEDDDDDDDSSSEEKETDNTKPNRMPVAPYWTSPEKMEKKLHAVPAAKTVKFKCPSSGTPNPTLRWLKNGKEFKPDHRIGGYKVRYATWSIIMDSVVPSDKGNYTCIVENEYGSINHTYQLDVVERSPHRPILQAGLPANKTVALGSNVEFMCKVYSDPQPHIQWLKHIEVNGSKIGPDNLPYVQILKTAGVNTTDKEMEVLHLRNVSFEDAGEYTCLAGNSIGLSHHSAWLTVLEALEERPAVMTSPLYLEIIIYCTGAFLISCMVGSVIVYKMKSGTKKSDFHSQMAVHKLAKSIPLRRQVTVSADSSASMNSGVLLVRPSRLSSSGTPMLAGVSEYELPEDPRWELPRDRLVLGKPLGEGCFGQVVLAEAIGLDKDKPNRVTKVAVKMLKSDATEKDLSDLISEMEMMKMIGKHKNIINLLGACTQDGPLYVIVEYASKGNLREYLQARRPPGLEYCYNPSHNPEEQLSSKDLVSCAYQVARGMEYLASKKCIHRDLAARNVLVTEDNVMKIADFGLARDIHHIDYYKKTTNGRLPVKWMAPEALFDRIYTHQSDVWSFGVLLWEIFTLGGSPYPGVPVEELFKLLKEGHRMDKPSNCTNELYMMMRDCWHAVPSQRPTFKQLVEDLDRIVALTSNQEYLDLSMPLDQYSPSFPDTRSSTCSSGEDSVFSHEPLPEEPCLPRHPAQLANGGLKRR

Kd: 952 nM
Substance: native, recombinant FGF-2 (from UniProt P09038 1-288) (ligand)
